Experimental data published in paper PMC8199036, “Improved Tumor-Targeting with Peptidomimetic Analogs of Minigastrin ^177Lu-PP-F11N” (Cancers, 2021).
Read-outs that look alike come from different tables or passages of the source. Starred links: 1 amine or outer side, 2 acyl side, 3 side chain; linkers in the order of their positions; H or OH if unused. Non-standard residues stand in square brackets, D forms with d. Residues, ends and D or L forms follow the SMILES beside them. *: point of attachment. DOTA = O=C(O)CN1CCN(CC(=O)O)CCN(CC(=O)*)CCN(CC(=O)O)CC1; X1 = C[C@@H](C(=O)[*:2])n1cc([C@@H](CCC(=O)O)N[*:1])nn1; X2 = O=C(Cn1cc([C@H](Cc2ccc(O)cc2)N[*:1])nn1)[*:2]; Nle = CCCC[C@H](N)C(=O)O

What was measured:
A431-CCK2R cells = assay: cell binding and internalization; assay type: cell-based; details: for internalized blocked / membrane-bound blocked: 6000-fold excess of minigastrin; for internalized specific / membrane-bound specific: total minus blocked
Source text: (§1) Procedures for (radio)metal labeling of the DOTA–minigastrin conjugates with ^177Lu^3+ and ^natLu^3+, cell culturing of A431-CCK2R cells, cell internalization (including blocking experiments with excess minigastrin (H-LE5AYGWMDF-NH2)), competition binding assays (IC50), stability measurements in human blood plasma, and determinations of logDpH 7.4 have been reported previously for the in vitro evaluation of TZMGs and were applied to NMGs without alteration.
Figure 2 (A) Total internalization of ^177Lu-labeled conjugates (2 nM, 5 kBq) in […] cells over 4 h (n = 3–4 in triplicate). […] Data points show mean value ± standard deviation.
Cell Internalization Data
Cell internalization was determined and analyzed as described in Grob, et al., J Med Chem, 2020.1 Specific values result from values of total internalization or cell binding minus values obtained in presence of a 6000-fold excess of minigas- […]
Incubation time membrane-bound internalized total blocked specific total blocked specific
Table S3: Complete Internalization Data for 177Lu-labeled NMG 1 as mean ± standard deviation from n = 3–4 in triplicates.
Table S4: Complete Internalization Data for 177Lu-labeled NMG 2 as mean ± standard deviation from n = 3–4 in triplicates.
Table S5: Complete Internalization Data for 177Lu-labeled NMG 3 as mean ± standard deviation from n = 3–4 in triplicates.

[1] = tested on: xenografts of A431-CCK2R cells; assay: biodistribution in mice with CCK2R-positive xenografts; assay type: in vivo, female CD1-nu mice
Procedure: (§2) Procedures for biodistribution studies with ^177Lu-labeled conjugates (10 pmol, 100 µL, 0.1 µM in PBS, 0.5 MBq, 1 µg/kg) in female CD1-nu mice with xenografts of A431-CCK2R cells at 1, 4, and 24 h p.i., as well as blocking experiments at 4 h p.i. with a 6000-fold excess of minigastrin have been reported previously and were followed without modifications. Statistical analysis was performed via GraphPad Prism using two-sided analysis of variance. n = 4 animals per group.

[2] = as above; assay type: in vivo, female CD1-nu mice; details: female, CD1-nu, mouse, total radioactivity; for tissue uptake at 1 h / tissue uptake at 4 h / tissue uptake at 24 h: in vivo
Procedure: as §2

[3] = tested on: A431-CCK2R cells xenografts; assay: SPECT/CT imaging of mice with tumor xenografts; assay type: in vivo, female CD1-nu mice; details: 24 h p.i.
Procedure: 10–14 days prior to the experiment, 6-week-old female CD1-nu mice were inoculated with 5 × 10^6 A431-CCK2R cells (0.1 mL, 5 × 10^7 cells/mL in PBS) subcutaneously in both shoulders. The mice were randomly assigned to groups of two animals. On the day of the experiment, ^177Lu-labeled conjugates (200 pmol, 100 µL, 2 µM in PBS, 20 MBq, 20 µg/kg) were injected via the tail vein. The mice were kept with food and water ad libitum. SPECT scans of 40 min (1 and 4 h p.i., frame duration 60 sec) or 60 min (24 h p.i., frame duration 80 sec) were acquired after an initial CT scan of 7.5 min (CT tube voltage 55 kV, CT tube current 145 µA) with a multi-pinhole NanoSPECT/CTplus (Bioscan Inc., […], and Mediso, Hungary). For the duration of the SPECT/CT scans, mice were kept under anesthesia with a mixture of isoflurane (1.5–2.5%) and oxygen and warmed by a constant air flow of 37 °C. The images were reconstructed with HiSPECT and analyzed in VivoQuant. A post-reconstruction filter was applied (Gauss, full width at half max, 1 mm) to the SPECT images, and the scale was adjusted to visualize important organs and tissues (0.001–0.004 kBq/voxel). n = 2 animals per group.

[4] = logD pH 7.4 determination; assay type: physicochemical; details: 177Lu-labeled
Source text: as §1

[5] = 10 pmol, Stomach (CCK2R-positive) uptake
[6] = 10 pmol, Tumor (CCK2R-positive) uptake
[7] = tumor / blood, 10 pmol, read-out: Tumor-to-Blood ratio
[8] = tumor / kidneys, 10 pmol, read-out: Tumor-to-Kidneys ratio
[9] = tumor / muscle, 10 pmol, read-out: Tumor-to-Muscle ratio
[10] = tumor / stomach, 10 pmol, read-out: Tumor-to-Stomach ratio

For `CCCC[C@H](NC(=O)[C@H](Cc1c[nH]c2ccccc12)NC(=O)Cn1cc([C@H](Cc2ccc(O)cc2)NC(=O)[C@H](C)n2cc([C@@H](CCC(=O)O)NC(=O)[C@@H](CCC(=O)O)NC(=O)[C@@H](CCC(=O)O)NC(=O)[C@@H](CCC(=O)O)NC(=O)[C@@H](CCC(=O)O)NC(=O)[C@@H](CCC(=O)O)NC(=O)CN3CCN(CC(=O)O)CCN(CC(=O)O)CCN(CC(=O)O)CC3)nn2)nn1)C(=O)N[C@@H](CC(=O)O)C(=O)N[C@@H](Cc1ccccc1)C(N)=O` [NMG 3, DOTA-(DGlu)6 -Ψ[Tz]-Ala-Tyr-Ψ[Tz]-Gly-Trp-Nle-Asp-Phe-NH2] ({DOTA}-[dE][dE][dE][dE][dE][X1][X2]W[Nle]DF-NH2), the internalized total (A431-CCK2R cells; 0.5 h) was 33.9 ± 1.1%, the membrane-bound total (A431-CCK2R cells; 0.5 h) was 7.7 ± 0.8% and the internalized blocked (A431-CCK2R cells; 0.5 h) was 0.4 ± 0.3%. It also gave a membrane-bound blocked (A431-CCK2R cells; 0.5 h) of 0.9 ± 0.3%, an internalized specific (A431-CCK2R cells; 0.5 h) of 33.5 ± 1.1% and a membrane-bound specific (A431-CCK2R cells; 0.5 h) of 6.8 ± 1.0%. It also gave an internalized total (A431-CCK2R cells; 1 h) of 57.2 ± 2.3%, a membrane-bound total (A431-CCK2R cells; 1 h) of 6.4 ± 0.3% and an internalized blocked (A431-CCK2R cells; 1 h) of 0.7 ± 0.3%. For the same compound, the membrane-bound blocked (A431-CCK2R cells; 1 h) was 0.9 ± 0.3%, the internalized specific (A431-CCK2R cells; 1 h) was 56.5 ± 2.1% and the membrane-bound specific (A431-CCK2R cells; 1 h) was 5.5 ± 0.4%. It also gave an internalized total (A431-CCK2R cells; 2 h) of 73.4 ± 1.3%, a membrane-bound total (A431-CCK2R cells; 2 h) of 4.0 ± 0.6% and an internalized blocked (A431-CCK2R cells; 2 h) of 5.5 ± 3.9%. For the same compound, the membrane-bound blocked (A431-CCK2R cells; 2 h) was 1.8 ± 1.3%, the internalized specific (A431-CCK2R cells; 2 h) was 67.9 ± 3.4% and the membrane-bound specific (A431-CCK2R cells; 2 h) was 2.2 ± 1.3%. For the same compound, the membrane-bound total (A431-CCK2R cells; 4 h) was 3.2 ± 0.3%, the internalized blocked (A431-CCK2R cells; 4 h) was 18.4 ± 4.3% and the membrane-bound blocked (A431-CCK2R cells; 4 h) was 2.4 ± 0.6%. For the same compound, the internalized specific (A431-CCK2R cells; 4 h) was 57.7 ± 4.2%, the membrane-bound specific (A431-CCK2R cells; 4 h) was 0.8 ± 0.6% and the cell-associated radioactivity (A431-CCK2R cells; after 4 h of incubation) was roughly 80%. The “Tumor washout: tumor uptake relative to 1h” value ([1]; 4 h) was 73%, the “Tumor washout: tumor uptake relative to 1h” value ([1]; 24 h) was 56% and the Blood uptake ([1]; female, CD1-nu, mouse, in vivo, 10 pmol, 1 h) was less than 0.5 % i.A./g. For the same compound, the tissue uptake at 1 h ([2]; 10 pmol, Blood uptake) was 0.51 %ID/g, the tissue uptake at 4 h ([2]; 10 pmol, Blood uptake) was 0.02 %ID/g and the tissue uptake at 24 h ([2]; 10 pmol, Blood uptake) was less than 0.01 %ID/g. It also gave a tissue uptake at 1 h ([2]; 10 pmol, Bone uptake) of 0.45 %ID/g, a tissue uptake at 24 h ([2]; 10 pmol, Bone uptake) of 0.07 %ID/g and a tissue uptake at 1 h ([2]; 10 pmol, Heart uptake) of 0.19 %ID/g. The tissue uptake at 4 h ([2]; 10 pmol, Heart uptake) was 0.03 %ID/g, the tissue uptake at 24 h ([2]; 10 pmol, Heart uptake) was 0.01 %ID/g and the tissue uptake at 1 h ([2]; 10 pmol, Intestines uptake) was 0.25 %ID/g. For the same compound, the tissue uptake at 4 h ([2]; 10 pmol, Intestines uptake) was 0.1 %ID/g, the tissue uptake at 24 h ([2]; 10 pmol, Intestines uptake) was 0.02 %ID/g and the tissue uptake at 1 h ([2]; 10 pmol, Kidneys uptake) was 2.01 %ID/g. For the same compound, the tissue uptake at 4 h ([2]; 10 pmol, Kidneys uptake) was 1.74 %ID/g, the tissue uptake at 24 h ([2]; 10 pmol, Kidneys uptake) was 1.09 %ID/g and the tissue uptake at 1 h ([2]; 10 pmol, Liver uptake) was 0.16 %ID/g. It also gave a tissue uptake at 4 h ([2]; 10 pmol, Liver uptake) of 0.07 %ID/g, a tissue uptake at 24 h ([2]; 10 pmol, Liver uptake) of 0.04 %ID/g and a tissue uptake at 1 h ([2]; 10 pmol, Lung uptake) of 0.33 %ID/g. It also gave a tissue uptake at 4 h ([2]; 10 pmol, Lung uptake) of 0.07 %ID/g, a tissue uptake at 24 h ([2]; 10 pmol, Lung uptake) of 0.03 %ID/g and a tissue uptake at 1 h ([2]; 10 pmol, Muscle uptake) of 0.13 %ID/g. The tissue uptake at 24 h ([2]; 10 pmol, Muscle uptake) was 0.01 %ID/g, the tissue uptake at 1 h ([2]; 10 pmol, Pancreas uptake) was 0.49 %ID/g and the tissue uptake at 4 h ([2]; 10 pmol, Pancreas uptake) was 0.24 %ID/g. The tissue uptake at 24 h ([2]; 10 pmol, Pancreas uptake) was 0.17 %ID/g, the tissue uptake at 1 h ([2]; 10 pmol, Spleen uptake) was 0.13 %ID/g and the tissue uptake at 4 h ([2]; 10 pmol, Spleen uptake) was 0.05 %ID/g. It also gave a tissue uptake at 1 h [2, 5] of 3.76 %ID/g, a tissue uptake at 4 h [2, 5] of 3.11 %ID/g and a tissue uptake at 24 h [2, 5] of 1.51 %ID/g. It also gave a tissue uptake at 1 h [2, 6] of 9.43 %ID/g, a tissue uptake at 4 h [2, 6] of 6.9 %ID/g and a tissue uptake at 24 h [2, 6] of 5.24 %ID/g. The tissue uptake at 4 h ([2]; Blood uptake) was 0.03 %ID/g, the tissue uptake at 4 h ([2]; Heart uptake) was 0.05 %ID/g and the tissue uptake at 4 h ([2]; Intestines uptake) was 0.07 %ID/g. The tissue uptake at 4 h ([2]; Kidneys uptake) was 1.88 %ID/g, the tissue uptake at 4 h ([2]; Liver uptake) was 0.09 %ID/g and the tissue uptake at 4 h ([2]; Lung uptake) was 0.09 %ID/g. For the same compound, the tissue uptake at 4 h ([2]; Pancreas uptake) was 0.19 %ID/g, the tissue uptake at 4 h ([2]; Spleen uptake) was 0.06 %ID/g and the tissue uptake at 4 h ([2]; Stomach (CCK2R-positive) uptake) was 0.65 %ID/g. For the same compound, the tissue uptake at 4 h ([2]; Tumor (CCK2R-positive) uptake) was 3.43 %ID/g, the tissue to tissue ratio at 1 h [2, 7] was 19.5 ± 7.58 and the tissue to tissue ratio at 4 h [2, 7] was 345 ± 34.6. The tissue to tissue ratio at 24 h [2, 7] was 4370 ± 541, the tissue to tissue ratio at 1 h [2, 8] was 4.7 ± 1.2 and the tissue to tissue ratio at 4 h [2, 8] was 3.99 ± 0.43. For the same compound, the tissue to tissue ratio at 24 h [2, 8] was 3.65 ± 0.99, the tissue to tissue ratio at 1 h [2, 9] was 79 ± 15.7 and the tissue to tissue ratio at 4 h [2, 9] was 505 ± 158. For the same compound, the tissue to tissue ratio at 24 h [2, 9] was 437 ± 54.1, the tissue to tissue ratio at 1 h [2, 10] was 2.66 ± 1.08 and the tissue to tissue ratio at 4 h [2, 10] was 2.22 ± 0.2. The tissue to tissue ratio at 24 h [2, 10] was 3.06 ± 1.44, the “visualization of tumor xenografts by SPECT/CT” value [3] was “clearly visualized” and the “logDpH 7.4” value [4] was -3.95 ± 0.42.
